Target: T1, Recombinant soluble Zika virus E ectodomain (ZIKV sE), strain H/PF/2013 (Zika virus, UniProt A0A024B7W1 291-694)
T1 construct: also called ZIKV sE dimer; recombinant ZIKV E protein
Assay: BLI (Octet), IgG on anti-human IgG Fc sensors, ZIKV sE dimer in solution

T1 sequence (A0A024B7W1 291-694): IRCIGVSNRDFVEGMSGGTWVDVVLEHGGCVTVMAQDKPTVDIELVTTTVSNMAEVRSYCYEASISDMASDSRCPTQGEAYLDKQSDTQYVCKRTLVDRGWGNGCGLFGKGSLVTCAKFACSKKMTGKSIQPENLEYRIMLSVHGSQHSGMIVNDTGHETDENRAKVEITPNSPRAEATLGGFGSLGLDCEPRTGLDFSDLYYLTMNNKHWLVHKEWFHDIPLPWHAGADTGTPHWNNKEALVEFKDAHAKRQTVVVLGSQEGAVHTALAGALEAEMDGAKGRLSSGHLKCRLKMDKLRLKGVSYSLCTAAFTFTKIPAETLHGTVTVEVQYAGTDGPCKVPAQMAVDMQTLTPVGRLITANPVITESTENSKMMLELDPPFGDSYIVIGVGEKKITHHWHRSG

B1: EDE2 A11, human recombinant IgG (antibody, V domains shown)
VH: EVQLVESGGGLVRPGGSLRLSCAASGFSYSNHWMHWVRQAPGKGLVWVSRINSDGSTRNYADFVKGRFTISRDNAENTLYLEMNSLTADDTAVYYCVRDGVRFYYDSTGYYPDSFFKYGMDVWGQGTTVTV
VL: QSVLTQPVSVSGSPGQSITISCTGTSSNADTYNLVSWYQQRPGKAPKLMIYEGTKRPSGVSNRFSASKSATAASLTISGLQPEDEADYYCCSYATSRTLVFGGGTKLTVV
notes: Human IgG; also called IgG EDE2 A11
binding result: binds
